Assay results as given in the supplement of paper PMC11865577.

Key:
Assay in all cases: pull-down binding Z-score (relative to library population); higher = stronger binding
[1] = test system: G-clamp-N3 (biotin conjugate); details: RNA library: Library-1 (pre-miRNA loops + repeats)
Outline: (§1)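 To score binding, a beads-only signal was subtracted, barcoded replicate probes were averaged with the highest and lowest dropped, and the value was converted to a Z-score using the library mean and standard deviation. The input was 1 μg of Cy5- or Cy3-end-labelled RNA library, heat-folded in phosphate/NaCl/KCl buffer and mixed for 60 min at 25 °C with streptavidin beads carrying 100 pmol of biotin-conjugated small molecule. Bound RNA was eluted in hot SDS and hybridised to a DNA barcode microarray at 55.5 °C for 20 h.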

[2] = test system: TO-3-N3 (biotin conjugate); details: RNA library: Library-2
Outline: as §1

[3] = test system: TO-3-N3-2 (biotin conjugate); details: RNA library: Library-2
Outline: as §1

[4] = test system: TO-N3 (biotin conjugate); details: RNA library: Library-2
Outline: as §1

[5] = test system: TO-N3-2 (biotin conjugate); details: RNA library: Library-2
Outline: as §1

Sequence	pull-down binding Z-score [1]	pull-down binding Z-score [2]	pull-down binding Z-score [3]	pull-down binding Z-score [4]	pull-down binding Z-score [5]
CUUUCUGUUGUCUGAGAGAAAAGAAAG [hsa-mir-520a]	0.6	-0.684	-0.385	-0.74	-0.553
CUUUGCUACUGCUC [hsa-mir-6072]	-0.385	-0.202	-0.0975	-0.000442	0.112
CUUUGGUGGCUAUGGUUGACUGGGCCACUCAGAG [hsa-mir-4468]	2.29	-0.366	-0.332	-0.123	0.846
CUUUGUCAUUAAAACCAAUAACAAAA [hsa-mir-548ap]	-0.92	0.331	0.223	0.0976	-0.638
CUUUGUCUGACUACAAUAUUCAAAAG [hsa-mir-4426]	-1.96	0.0486	0.0275	-0.0832	-0.569
CUUUGUGAUUUUAUGAGAACAAAG [hsa-mir-3173]	0.801	-0.938	-0.486	-1.22	-1.27
CUUUUAGAGUAAUUGUGAAACUGUUUUUCAAAG [hsa-mir-562]	0.748	-0.531	-0.0695	-0.769	-0.462
CUUUUAUAUCAAGGCACAUAAAAG [hsa-mir-3910-1]	-1.7	-0.493	-0.271	-0.626	-1.17
CUUUUAUGUGCCUUGAUAUAAAAG [hsa-mir-3910-2]	-0.124	-0.556	-0.297	-0.644	-0.682
CUUUUGGAAAAUAGAAAAG [hsa-mir-3184]	1.56	-0.24	0.161	-0.433	-0.0491
CUUUUGUUCAAAUAAAAAUGCAAAAG [hsa-mir-651]	-0.842	-0.729	-0.367	-1.06	-1.25
CUUUUUGCCACCUGAGCACAGUCAGCAGUCAGCAUAAAA [hsa-mir-4275]	0.39	0.6	0.292	1.13	1.15
CUUUUUGCUGAUGGAGGGUCUUGCCUCCAUGGGGAUGGCUG [hsa-mir-4502]	1	0.828	0.159	0.938	0.571
GAAAAAUCCCUGUUAACUUUC [hsa-mir-6833]	-0.686	-0.143	0.174	-0.225	0.133
GAAAACUUUGGAGAAAAAUUUUC [hsa-mir-4659a]	-0.714	-0.765	-0.258	-1.04	-0.857
GAAACAUCUUUUAC [hsa-mir-4514]	-0.862	-0.428	-0.191	-0.551	-0.469
GAAAUAGGCUGCGAAGAUAACAGUAUUUC [hsa-mir-3942]	0.773	-0.872	-0.17	-0.979	-0.482
GAAAUGUGUGGAAGAUGGCAUUUC [hsa-mir-4482]	2.74	-0.346	-0.00894	-0.302	0.278

Sequence	pull-down binding Z-score [1]	pull-down binding Z-score [2]	pull-down binding Z-score [3]	pull-down binding Z-score [4]	pull-down binding Z-score [5]
GAACACUAUUCCAUUGUGUUC [hsa-mir-588]	0.0194	-0.971	-0.701	-1.33	-1.31
GAACCCAAGAAAAGCUGACUUGGAGGUCCC [hsa-mir-4667]	-0.432	1.21	0.578	1.47	1.27
GAACCCAGGGAGCCAGACUGCCUGGGUUC [hsa-mir-607]	-0.0852	1.05	-0.182	0.843	-0.0198
GAACUAACUAACCAGAACUAUUUUGUUC [hsa-mir-4652]	-1.48	0.249	0.0681	-0.0697	-0.742
GAACUUUUACGGUGAACCAGGAGGUUC [hsa-mir-629]	-0.428	0.0537	-0.139	-0.0515	-0.0865
GAAGAAGAAGAAGAAGAAGAAGAAGAAGAAGAAGAAGAAGAAGAAGAA [r(GAA)16]	-1.35	1.7	3.35	3.53	3.94
GAAGAUUCUGAAAAUCACUAACU [hsa-mir-6878]	-1.6	0.159	0.167	0.273	-0.0867
GAAGCACUGGUUAUGAUUUGCAUC [hsa-mir-3126]	-0.739	-0.087	0.159	0.0904	0.429
GAAGCCGCUCCCACCUGACCCUCACGGCCUC [hsa-mir-3605]	-0.691	1.3	0.468	1.33	1.46
GAAGCCUUGAUCAGAAGCUAGGAAGGCUUC [hsa-mir-4762]	1.95	0.782	0.433	0.654	0.593
GAAGCGAGAUGUUUGUCUAAA [hsa-mir-6835]	-0.211	0.00611	0.262	0.398	0.915
GAAGCUCCUAUAGCUCCUGUAGCUUC [hsa-mir-578]	-0.978	0.48	0.166	0.407	0.587
GAAGCUGUAAGACACAGCUAAGCUUU [hsa-mir-30d]	-0.32	-0.376	-0.00751	-0.169	0.0477
GAAGCUGUAAGGUGUUCAGAGGAGCUUU [hsa-mir-30e]	2.63	0.57	0.908	0.977	1.1
GAAGCUGUGAAGCCACAGAUGGGCUUU [hsa-mir-30a]	0.763	-0.0778	0.0568	0.224	0.641
GAAGGAAGGCAAGGCUGUCUGUCCAUC [hsa-mir-4800]	-1.01	0.852	0.513	1.03	0.685
GAAGGGAAGCUGGGAACCUGACUGCCUC [hsa-mir-6867]	-0.151	0.688	0.402	0.961	1.66
GAAGGGGAGUUUCCCUCUAUUCCCUUC [hsa-mir-3679]	-0.729	0.265	-0.155	-0.0396	-0.594
